In patent US20170233781:

Key:
[1] = system: LPETA sorting signal (SEQ ID NO:29)
[2] = biological target: T1, ALARR substrate (SEQ ID NO:36)
T1 chain: ALARR

[3] = biological target: T2, ALLPR substrate (SEQ ID NO:46)
T2 chain: ALLPR

[4] = biological target: T3, ALSRR substrate (SEQ ID NO:38)
T3 chain: ALSRR

[5] = biological target: T4, LLCKR substrate (SEQ ID NO:50)
T4 chain: LLCKR

[6] = biological target: T5, LQPRA substrate (SEQ ID NO:51)
T5 chain: LQPRA

[7] = biological target: T6, LRPRA substrate (SEQ ID NO:37)
T6 chain: LRPRA

[8] = biological target: T7, PLLAR substrate (SEQ ID NO:47)
T7 chain: PLLAR

[9] = biological target: T8, PLLPR substrate (SEQ ID NO:42)
T8 chain: PLLPR

[10] = biological target: T9, PLLRR substrate (SEQ ID NO:43)
T9 chain: PLLRR

[11] = biological target: T10, PLRPR substrate (SEQ ID NO:44)
T10 chain: PLRPR

[12] = biological target: T11, PLVPR substrate (SEQ ID NO:48)
T11 chain: PLVPR

[13] = biological target: T12, RLAPR substrate (SEQ ID NO:45)
T12 chain: RLAPR

[14] = biological target: T13, RLLPR substrate (SEQ ID NO:40)
T13 chain: RLLPR

[15] = biological target: T14, RLRPR substrate (SEQ ID NO:39)
T14 chain: RLRPR

[16] = biological target: T15, RLSRR substrate (SEQ ID NO:41)
T15 chain: RLSRR

[17] = biological target: T16, RLTPR substrate (SEQ ID NO:31)
T16 chain: RLTPR

[18] = biological target: T17, RRRRR substrate
T17 chain: RRRRR

[19] = biological target: T18, SLRRR substrate (SEQ ID NO:49)
T18 chain: SLRRR

[20] = biological target: T19, SPAKR substrate (SEQ ID NO:32)
T19 chain: SPAKR

[21] = biological target: T20, VARRD substrate (SEQ ID NO:14)
T20 chain: VARRD

[22] = biological target: T21, ENLYFQS substrate (SEQ ID NO:8)
T21 chain: ENLYFQS

[23] = biological target: T22, ENLYFES substrate (SEQ ID NO:1)
T22 chain: ENLYFES

SrtA from S. pyogenes (residues 81-249)
sortase transpeptidation in yeast ER (FACS, HA-FITC against FLAG-PE) [1]: A positive signal resulted in an increase in HA-FITC signal and decrease in FLAG-PE signal (FIG. 6B), in comparison to the negative control (FIG. 6A)

B1: Kex2 convertase (endogenous, yeast secretory pathway of Saccharomyces cerevisiae EBY100) (protein)
chain: APPMDSSLLPVKEAEDKLSINDPLFERQWHLVNPSFPGSDINVLDLWYNNITGAGVVAAIVDDGLDYENEDLKDNFCAEGSWDFNDNTNLPKPRLSDDYHGTRCAGEIAAKKGNNFCGVGVGYNAKISGIRILSGDITTEDEAASLIYGLDVNDIYSCSWGPADDGRHLQGPSDLVKKALVKGVTEGRDSKGAIYVFASGNGGTRGDNCNYDGYTNSIYSITIGAIDHKDLHPPYSEGCSAVMAVTYSSGSGEYIHSSDINGRCSNSHGGTSAAAPLAAGVYTLLLEANPNLTWRDVQYLSILSAVGLEKNADGDWRDSAMGKKYSHRYGFGKIDAHKLIEMSKTWENVNAQTWFYLPTLYVSQSTNSTEETLESVITISEKSLQDANFKRIEHVTVTVDIDTEIRGTTTVDLISPAGIISNLGVVRPRDVSSEGFKDWTFMSVAHWGENGVGDWKIKVKTTENGHRIDFHSWRLKLFGESIDSSKTETFVFGNDKEEVEPAATESTVSQYSASSTSISISATSTSSISIGVETSAIPQTTTASTDPDSDPNTPKKLSSPRQAMHYFLTIFLIGATFLVLYFMFFMKSRRRIRRSRAETYEFDIIDTDSEYDSTLDNGTSGITEPEEVEDFDFDLSDEDHLASLSSSENGDAEHTIDSVLTNENPFSDPIKQKFPNDANAESASNKLQELQPDVPPSSGRS
substrate cleavage in EBY100 against EBY100^Kex2- (two-colour FACS, FLAG-PE/HA-FITC) [2]: ✓
substrate cleavage in EBY100 against EBY100^Kex2- (two-colour FACS, FLAG-PE/HA-FITC) [3]: ✓
substrate cleavage in EBY100 against EBY100^Kex2- (two-colour FACS, FLAG-PE/HA-FITC) [4]: ✓
substrate cleavage in EBY100 against EBY100^Kex2- (two-colour FACS) [5]: All three substrates exhibited cleavage in EBY100 and non-cleavage in EBY100^Kex2-
substrate cleavage in EBY100 against EBY100^Kex2- (two-colour FACS) [6]: efficient cleavage in the EBY100 and non-cleavage in the EBY100^Kex2- strain
substrate cleavage in EBY100 against EBY100^Kex2- (two-colour FACS, FLAG-PE/HA-FITC) [7]: ✓
substrate cleavage in EBY100 against EBY100^Kex2- (two-colour FACS, FLAG-PE/HA-FITC) [8]: ✓
substrate cleavage in EBY100 against EBY100^Kex2- (two-colour FACS, FLAG-PE/HA-FITC) [9]: ✓
substrate cleavage in EBY100 against EBY100^Kex2- (two-colour FACS, FLAG-PE/HA-FITC) [10]: ✓
substrate cleavage in EBY100 against EBY100^Kex2- (two-colour FACS, FLAG-PE/HA-FITC) [11]: ✓
substrate cleavage in EBY100 against EBY100^Kex2- (two-colour FACS, FLAG-PE/HA-FITC) [12]: ✓
substrate cleavage in EBY100 against EBY100^Kex2- (two-colour FACS, FLAG-PE/HA-FITC) [13]: ✓
substrate cleavage in EBY100 against EBY100^Kex2- (two-colour FACS, FLAG-PE/HA-FITC) [14]: ✓
substrate cleavage in EBY100 against EBY100^Kex2- (two-colour FACS, FLAG-PE/HA-FITC) [15]: ✓
substrate cleavage in EBY100 against EBY100^Kex2- (two-colour FACS, FLAG-PE/HA-FITC) [16]: ✓
substrate cleavage in EBY100 against EBY100^Kex2- (two-colour FACS, FLAG-PE/HA-FITC) [17]: ✓
substrate cleavage in EBY100 against EBY100^Kex2- [18]: the RRRRR was also found to be only cleaved in the EBY100 and not in the EBY100^Kex2-
substrate cleavage in EBY100 against EBY100^Kex2- (two-colour FACS, FLAG-PE/HA-FITC) [19]: ✓
substrate cleavage in EBY100 against EBY100^Kex2- (two-colour FACS) [20]: All three substrates exhibited cleavage in EBY100 and non-cleavage in EBY100^Kex2-
substrate cleavage in EBY100 against EBY100^Kex2- (two-colour FACS) [21]: All three substrates exhibited cleavage in EBY100 and non-cleavage in EBY100^Kex2-

B2: wild-type tobacco etch mosaic virus protease (TEV-P) (protein)
chain: GESLFKGPRDYNPISSTICHLTNESDGHTTSLYGIGFGPFIITNKHLFRRNNGTLLVQSLHGVFKVKNTTTLQQHLIDGRDMIIIRMPKDFPPFPQKLKFREPQREERICLVTTNFQTKSMSSMVSDTSCTFPSSDGIFWKHWIQTKDGQCGSPLVSTRDGFIVGIHSASNFTNTNNYFTSVPKNFMELLTNQEAQQWVSGWRLNADSVLWGGHKVFMSKPEEPFQPVKEATQLMNELVYSQFEHDEL
enrichment of cleaved substrate sequences after FACS sorting (YESS with NextGen sequencing) [22]: significant enrichments of the ENLYFQS (SEQ ID NO:8) sequence were observed for the wide-type TEV-P

B3: engineered TEV protease variant TEV-PE10 (S120R, D148R, T173A, N177K, M218I) (protein)
chain: GESLFKGPRDYNPISSTICHLTNESDGHTTSLYGIGFGPFIITNKHLFRRNNGTLLVQSLHGVFKVKNTTTLQQHLIDGRDMIIIRMPKDFPPFPQKLKFREPQREERICLVTTNFQTKRMSSMVSDTSCTFPSSDGIFWKHWIQTKRGQCGSPLVSTRDGFIVGIHSASNFANTNKYFTSVPKNFMELLTNQEAQQWVSGWRLNADSVLWGGHKVFISKPEEPFQPVKEATQLMNELVYSQFEHDEL
enrichment of cleaved substrate sequences after FACS sorting (YESS with NextGen sequencing) [23]: significant enrichments of the ... ENLYFES (SEQ ID NO:1) sequence for the engineered TEV-PE10
